B1: SPRY1 (parent)
chain: WIHRPGCRCKNSNTVYCKLESCPS

Variants of: B1
Test: protein stability index of a GFP-peptide fusion (GPS, HEK-293T) (PSI 1-6); higher = more stable
Conditions: c terminus: a fixed tail appended
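Also: lentivirally expressed fusions sorted by FACS into six bins by GFP to DsRed ratio, PSI derived from sequencing read proportions per bin multiplied by bin number.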

Variant	protein stability index
WIHRPGCRCKNSNTVLCKLESCPS	2.28
WIHRPGCRCKNSNTVECKLESCPS	3.28
WIHRPGCRCKNSNTVCCKLESCPS	2.69
WIHRPGCRCKNSNTVKCKLESCPS	2.05
WIHRPGCRCKNSNTVMCKLESCPS	2.02
WIHRPGCRCKNSNTVQCKLESCPS	2.46
WIHRPGCRCKNSNTVHCKLESCPS	2.65
WIHRPGCRCKNSNTVGCKLESCPS	2.75
WIHRPGCRCKNSNTVDCKLESCPS	2.91
WIHRPGCRCKNSNTVVCKLESCPS	2.91
WIHRPGCRCKNSNTVWCKLESCPS	2.68
WIHRPGCRCKNSNTVPCKLESCPS	2.56
WIHRPGCRCKNSNTVACKLESCPS	3.71
WIHRPGCRCKNSNTVICKLESCPS	1.87
WIHRPGCRCKNSNTVSCKLESCPS	2.92
WIHRPGCRCKNSNTVNCKLESCPS	3.56
WIHRPGCRCKNSNTVFCKLESCPS	1.74
WIHRPGCRCKNSNTVYCKLESTPS	2.07
WIHRPGCRCKNSNTVYCKLESPPS	2.68
WIHRPGCRCKNSNTVYCKLESQPS	1.98
WIHRPGCRCKNSNTVYCKLESIPS	1.84
WIHRPGCRCKNSNTVYCKLESNPS	1.9
WIHRPGCRCKNSNTVYCKLESMPS	1.53
WIHRPGCRCKNSNTVYCKLESFPS	1.8

Variant	protein stability index
WIHRPGCRCKNSNTVYCKLESEPS	2.02
WIHRPGCRCKNSNTVYCKLESSPS	2.26
WIHRPGCRCKNSNTVYCKLESHPS	2.01
WIHRPGCRCKNSNTVYCKLESRPS	3.31
WIHRPGCRCKNSNTVYCKLESVPS	2.52
WIHRPGCRCKNSNTVYCKLESGPS	2.29
WIHRPGCRCKNSNTVYCKLESKPS	1.88
WIHRPGCRCKNSNTVYCKLESLPS	2.03
WIHRPGCRCKNSNTVYCKLESYPS	2.44
WIHRPGCRCKNSNTVYCKLESWPS	1.83
WIHRPGCRCKNSNTVYCKLESAPS	3.24
WIHRPGCRCKNSNTVYCKLESDPS	1.98
WIHRPGCRCKNSSTVYCKLESCPS	2.06
WIHRPGCRCKNSYTVYCKLESCPS	2.73
WIHRPGCRCKNSRTVYCKLESCPS	1.88
WIHRPGCRCKNSVTVYCKLESCPS	2.04
WIHRPGCRCKNSQTVYCKLESCPS	2.26
WIHRPGCRCKNSTTVYCKLESCPS	2.4
WIHRPGCRCKNSWTVYCKLESCPS	2.81
WIHRPGCRCKNSNTVYCKLESCQS	2.41
WIHRPGCRCKNSNTVYCKLESCIS	1.32
WIHRPGCRCKNSNTVYCKLESCHS	2.23
WIHRPGCRCKNSNTVYCKLESCNS	2.43
WIHRPGCRCKNSNTVYCKLESCMS	1.56

Variant	protein stability index
WIHRPGCRCKNSNTVYCKLESCES	2.03
WIHRPGCRCKNSNTVYCKLESCRS	1.93
WIHRPGCRCKNSNTVYCKLESCAS	2.29
WIHRPGCRCKNSNTVYCKLESCCS	2.43
WIHRPGCRCKNSNTVYCKLESCLS	1.71
WIHRPGCRCKNSNTVYCKLESCGS	2.84
WIHRPGCRCKNSNTVYCKLESCVS	1.47
WIHRPGCRCKNSNTVYCKLESCKS	2.15
WIHRPGCRCKNSNTVYCKLESCWS	2.35
WIHRPGCRCKNSNTVYCKLESCSS	2.9
WIHRPGCRCKNSNTVYCKLESCDS	3.04
WIHRPGCRCKNSNTVYCKLESCFS	3.63
WIHRPGCRCKNSNTVYCKLESCTS	1.83
WIHRPGCRCKNSNTAYCKLESCPS	2.41
WIHRPGCRCKNSNTLYCKLESCPS	2.34
WIHRPGCRCKNSNTIYCKLESCPS	2.14
WIHRPGCRCKNSNTPYCKLESCPS	3.11
WIHRPGCRCKNSNTKYCKLESCPS	2.18
WIHRPGCRCKNSNTGYCKLESCPS	2.69
WIHRPGCRCKNSNTSYCKLESCPS	2.35
WIHRPGCRCKNSNTEYCKLESCPS	2.49
WIHRPGCRCKNSNTRYCKLESCPS	2.67
WIHRPGCRCKNSNTTYCKLESCPS	3.03
WIHRPGCRCKNSNTNYCKLESCPS	2.68

Variant	protein stability index
WIHRPGCRCKNSNTMYCKLESCPS	1.74
WIHRPGCRCKNSNTFYCKLESCPS	2.37
WIHRPGCRCKNSNTYYCKLESCPS	1.6
WIHRPGCRCKNSNTHYCKLESCPS	2.06
WIHRPGCRCKNSNTDYCKLESCPS	3.14
WIHRPGCRCKNSNTWYCKLESCPS	2.92
WIHRPGCRCKNSNTQYCKLESCPS	2.65
WIHRPGCRCKNSNTCYCKLESCPS	2.42
WIHRPGCRCKNSNSVYCKLESCPS	2.59
WIHRPGCRCKNSNNVYCKLESCPS	2.78
WIHRPGCRCKNSNEVYCKLESCPS	2.84
WIHRPGCRCKNSNKVYCKLESCPS	1.92
WIHRPGCRCKNSNGVYCKLESCPS	2.8
WIHRPGCRCKNSNFVYCKLESCPS	1.9
WIHRPGCRCKNSNHVYCKLESCPS	1.99
WIHRPGCRCKNSNMVYCKLESCPS	1.97
WIHRPGCRCKNSNQVYCKLESCPS	2.87
WIHRPGCRCKNSNLVYCKLESCPS	2.08
WIHRPGCRCKNSNRVYCKLESCPS	1.54
WIHRPGCRCKNSNIVYCKLESCPS	2.6
WIHRPGCRCKNSNDVYCKLESCPS	3.07
WIHRPGCRCKNSNWVYCKLESCPS	1.85
WIHRPGCRCKNSNVVYCKLESCPS	1.86
WIHRPGCRCKNSNPVYCKLESCPS	1.79

Variant	protein stability index
WIHRPGCRCKNSNCVYCKLESCPS	2.56
WIHRPGCRCKNSNAVYCKLESCPS	2.89
WIHRPGCRCKNSNYVYCKLESCPS	1.84
WIHRPGCRCKNSNTVYTKLESCPS	1.65
WIHRPGCRCKNSNTVYHKLESCPS	2.3
WIHRPGCRCKNSNTVYDKLESCPS	1.99
WIHRPGCRCKNSNTVYAKLESCPS	1.44
WIHRPGCRCKNSNTVYGKLESCPS	2.81
WIHRPGCRCKNSNTVYLKLESCPS	1.58
WIHRPGCRCKNSNTVYMKLESCPS	2.21
WIHRPGCRCKNSNTVYPKLESCPS	2.1
WIHRPGCRCKNSNTVYIKLESCPS	2.46
WIHRPGCRCKNSNTVYKKLESCPS	2.42
WIHRPGCRCKNSNTVYEKLESCPS	2.39
WIHRPGCRCKNSNTVYSKLESCPS	2.13
WIHRPGCRCKNSNTVYFKLESCPS	2.98
WIHRPGCRCKNSNTVYQKLESCPS	1.71
WIHRPGCRCKNSNTVYNKLESCPS	1.51
WIHRPGCRCKNSNTVYYKLESCPS	1.65
WIHRPGCRCKNSNTVYVKLESCPS	3.78
WIHRPGCRCKNSNTVYCKCESCPS	3.1
WIHRPGCRCKNSNTVYCKMESCPS	2.37
WIHRPGCRCKNSNTVYCKHESCPS	1.89
WIHRPGCRCKNSNTVYCKKESCPS	2.46

Variant	protein stability index
WIHRPGCRCKNSNTVYCKQESCPS	2.59
WIHRPGCRCKNSNTVYCKDESCPS	3.51
WIHRPGCRCKNSNTVYCKYESCPS	2.49
WIHRPGCRCKNSNTVYCKPESCPS	2.01
WIHRPGCRCKNSNTVYCKAESCPS	3
WIHRPGCRCKNSNTVYCKVESCPS	2
WIHRPGCRCKNSNTVYCKIESCPS	1.76
WIHRPGCRCKNSNTVYCKNESCPS	3.33
WIHRPGCRCKNSNTVYCKWESCPS	2.16
WIHRPGCRCKNSNTVYCKGESCPS	2.68
WIHRPGCRCKNSNTVYCKTESCPS	2.44
WIHRPGCRCKNSNTVYCKFESCPS	2.06
WIHRPGCRCKNSNTVYCKRESCPS	2.73
WIHRPGCRCKNSNTVYCSLESCPS	2.28
WIHRPGCRCKNSNTVYCVLESCPS	1.7
WIHRPGCRCKNSNTVYCTLESCPS	2.55
WIHRPGCRCKNSNTVYCALESCPS	1.91
WIHRPGCRCKNSNTVYCCLESCPS	2.72
WIHRPGCRCKNSNTVYCDLESCPS	3.3
WIHRPGCRCKNSNTVYCNLESCPS	2.66
WIHRPGCRCKNSNTVYCPLESCPS	2.03
WIHRPGCRCKNSNTVYCWLESCPS	1.63
WIHRPGCRCKNSNTVYCGLESCPS	2.58
WIHRPGCRCKNSNTVYCFLESCPS	1.74

Variant	protein stability index
WIHRPGCRCKNSNTVYCYLESCPS	1.73
WIHRPGCRCKNSNTVYCHLESCPS	2.1
WIHRPGCRCKNSNTVYCLLESCPS	1.8
WIHRPGCRCKNSNTVYCRLESCPS	2.09
WIHRPGCRCKNSNTVYCILESCPS	1.68
WIHRPGCRCKNSNTVYCMLESCPS	2.46
WIHRPGCRCKNSNTVYCQLESCPS	2.25
WIHRPGCRCKNSNTVYCKLNSCPS	2.13
WIHRPGCRCKNSNTVYCKLMSCPS	1.4
WIHRPGCRCKNSNTVYCKLSSCPS	2.77
WIHRPGCRCKNSNTVYCKLQSCPS	2.12
WIHRPGCRCKNSNTVYCKLISCPS	1.5
WIHRPGCRCKNSNTVYCKLCSCPS	2.41
WIHRPGCRCKNSNTVYCKLKSCPS	2.07
WIHRPGCRCKNSNTVYCKLPSCPS	1.92
WIHRPGCRCKNSNTVYCKLLSCPS	2.06
WIHRPGCRCKNSNTVYCKLRSCPS	2.91
WIHRPGCRCKNSNTVYCKLGSCPS	2.21
WIHRPGCRCKNSNTVYCKLYSCPS	2.61
WIHRPGCRCKNSNTVYCKLFSCPS	2.37
WIHRPGCRCKNSNTVYCKLTSCPS	2.33
WIHRPGCRCKNSNTVYCKLASCPS	1.84
WIHRPGCRCKNSNTVYCKLHSCPS	1.78
WIHRPGCRCKNSNTVYCKLVSCPS	1.77

Variant	protein stability index
WIHRPGCRCKNSNTVYCKLDSCPS	2.26
WIHRPGCRCKNSNTVYCKLELCPS	1.7
WIHRPGCRCKNSNTVYCKLEICPS	2.67
WIHRPGCRCKNSNTVYCKLEPCPS	2.74
WIHRPGCRCKNSNTVYCKLEWCPS	2.75
WIHRPGCRCKNSNTVYCKLEQCPS	2.14
WIHRPGCRCKNSNTVYCKLERCPS	2.17
WIHRPGCRCKNSNTVYCKLEFCPS	2.56
WIHRPGCRCKNSNTVYCKLENCPS	2.63
WIHRPGCRCKNSNTVYCKLEKCPS	1.79
WIHRPGCRCKNSNTVYCKLEECPS	2.4
WIHRPGCRCKNSNTVYCKLEMCPS	1.99
WIHRPGCRCKNSNTVYCKLEHCPS	2
WIHRPGCRCKNSNTVYCKLECCPS	1.8
WIHRPGCRCKNSNTVYCKLEACPS	2.13
WIHRPGCRCKNSNTVYCKLETCPS	2.17
WIHRPGCRCKNSNTVYCKLEVCPS	2.09
WIHRPGCRCKNSNTVYCKLEDCPS	2.13
WIHRPGCRCKNSNTVYCKLEGCPS	2.22
WIHRPGCRCKNSNTVYCKLEYCPS	2.04

From the supplement of paper PMC10567573
